Source: patent US5968526A, “T cell epitopes of the major allergens from Dermatophagoides (house dust mite)” (Immulogic Pharamaceutical Corporation, priority 1995, dated 1999)

Key:
[1] = pH-solubility profile; format: physicochemical; conditions: for solubility: at a pH in the range pH 6 to pH 8; for solubility (in words): aqueous buffer, superior solubility = >3 mg/ml at pH 6-8
Experimental: (§1) 50 mM sodium phosphate stock solutions:
(§2) Stock solution A: 0.66 g […] of monobasic sodium phosphate monohydrate U.S.P. and 50 mg EDTA disodium dihydrate, U.S.P. were dissolved in 100 mL of WFI. The solution was filtered through a 0.2 micron filter
(§3) Stock solution B: 0.71 g […] of dibasic sodium phosphate U.S.P. were disolved in 100 ml WFI. The solution was filtered through a 0.2 micron filter.
(§4) 2. Initial peptide dispersions
(§5) Dispersion A: 3.0 mg of each candidate peptide,DPI-21.2 (SEQ. ID. NO. 28), DFI-22.2 (SEQ. ID. NO. 93), DFI-23.31(SEQ. ID. NO. 165), DFI-26.6 (SEQ. ID. NO. 168), DPII-20.9 (SEQ. ID. NO. 169), DPII-22.14 (SEQ. ID. NO. 180) and DPII-25.15 (SEQ. ID. NO. 188), was weighed out separately and placed in separate 1.5 mL eppendoff vials with 600 μL of stock solution A. The composition was agitated for 1 seconds to mix well.
as §5, with “Dispersion B:” for “Dispersion A:”, “each peptide, DPI-21.2” for “each candidate peptide,DPI-21.2”, “solution B.” for “solution A.”, “The mixture” for “The composition”, “for 5” for “for 1”
(§6) Dispersions A and B were sonicated for 2 minutes for good homogeneity. A small volume was pipetted from each dispersion into a labeled eppendoff vial according to the following volume ratio:
(§7) The resultant solutions/suspensions were stored in the dark at about 22° C.±2 for 24 hours without agitation. The solutions were filtered and filtrates were analyzed for pH and peptide concentration.
(§8) The concentration of filtered peptide solutions was determined by HPLC analysis. In this experiment, the solubility of peptide at each pH is defined as the amount of peptide remaining in solution after filtration through a membrane filter having a 0.2 micrometer pore size. The extent of degradation of peptides was estimated by calculating the percent of total degradant peak area over the total peak area.
The pH values with respect to the solubility values was plotted and are shown in FIG. 37 for each respective peptide. As shown in the solubility curve for each peptide as represented in FIG. 37, peptides DPI-21.2 (SEQ. ID. NO. 28), DFI-22.2 (SEQ. ID. NO. 93), DFI-23.31 (SEQ. ID. NO. 165), DFI-26.6 (SEQ. ID. NO. 168), DPII-20.9 (SEQ. ID. NO. 169), DPII-22.14 (SEQ. ID. NO. 180) and DPII-25.15 (SEQ. ID. NO. 188) are each soluble at greater than 3 mg/ml at a pH in the pH range of pH 6 to pH 8.

[2] = pH-stability profile / solution stability (HPLC); format: physicochemical; conditions: pH 6 to pH 8
Experimental: as §1, §2, §3, §4, §5
as §5, with “Dispersion B:” for “Dispersion A:”, “each peptide, DPI-21.2” for “each candidate peptide,DPI-21.2”, “solution B.” for “solution A.”, “The mixture” for “The composition”, “for 5” for “for 1”
as §6, §7, §8
The pH-stability profiles for each peptide DPI-21.2 (SEQ. ID. NO. 28), DFI-22.2 (SEQ. ID. NO. 93), DFI-23.31(SEQ. ID. NO. 165), DFI-26.6 (SEQ. ID. NO. 168), DPII-20.9 (SEQ. ID. NO. 169), DPII-22.14 (SEQ. ID. NO. 180) and DPII-25.15 (SEQ. ID. NO. 188) in equal concentration combination at 3, 2, and 1 mg/ml per peptide and prepared in duplicate as described above with one set stored at about 5° C. for 24 hours and one set stored at about 22° C.±2 for 24 hours, were calculated and tabulated as a function of the percentage of total of degradant peak area (FIG. 38).

[3] = tested on: human IgE; assay: direct binding ELISA of IgE to mite allergen proteins and peptides; conditions: for IgE reactivity, candidate peptides: data not shown; for IgE binding (ELISA), modified peptides: plasma of 19 mite-allergic patients and pool of 18, Example XV
[4] = tested on: mast cells or basophils; assay: histamine release; format: cell-based, human; conditions: data not shown
Experimental: To determine whether a peptide which binds IgE results in the release of mediators, a histamine release assay can be performed using standard reagents and protocols obtained for example, from Amac, Inc. (Westbrook, Me.). Briefly, a buffered solution of a peptide to be tested is combined with an equal volume of whole heparinized blood from an allergic subject. After mixing and incubation, the cells are pelleted and the supernatants are processed and analyzed using a radioimmunoassay to determine the amount of histamine released.

Substance | solubility [1] | stability (in words) [2] | IgE reactivity, candidate peptides [3] | histamine release [4] | IgE binding (ELISA), modified peptides [3] | solubility (in words) [1] | stability (in words) ([2]; listed as SEQ. ID. NO. 207)
DF I-22.2: VAATESAYLAYRNTSLDLSEQELVD, amino acid residues 40-64 of Der f I | greater than 3 mg/ml | acceptable solution stability | negative | negative | – | – | –
DP I-21.2: Der p I peptide; unique peptide (SINGNAPAEIDLRQMRTVTPIRMQ) | greater than 3 mg/ml | acceptable solution stability | negative | negative | – | – | –
DP I-23.31: modified Der p I peptide; unique peptide (DEEGVVQESYYRYVAREQSCRRPNAE) | greater than 3 mg/ml | acceptable solution stability | negative | negative | No plasma samples contained IgE | – | –
DP I-26.6: modified Der p I peptide; unique peptide (DEGIKDLDAFRHYDGRTIIQRDNGYE) | greater than 3 mg/ml | acceptable solution stability | negative | negative | – | – | –
DP II-20.9: modified Der p II peptide; unique peptide (DQVDVKDCANHEIKKVLVPGCHGSE) | greater than 3 mg/ml | acceptable solution stability | negative | negative | No plasma samples contained IgE | – | –
DP II-22.14: DKELEAVFEANQNTKTAKAE; unique peptide | greater than 3 mg/ml | acceptable solution stability | negative | negative | No plasma samples contained IgE | increased by an order of magnitude | –
DP II-22: QLEAVFEANQNTKTAKIEIKASIDGLEV | – | stable | – | – | – | did not meet the "superior solubility" requirement of 3 mg/ml | nor did it meet the stability requirement
